Molecular target: pp1a_human PPP1CA (UniProt P62136)
Sequence (P62136 whole entry): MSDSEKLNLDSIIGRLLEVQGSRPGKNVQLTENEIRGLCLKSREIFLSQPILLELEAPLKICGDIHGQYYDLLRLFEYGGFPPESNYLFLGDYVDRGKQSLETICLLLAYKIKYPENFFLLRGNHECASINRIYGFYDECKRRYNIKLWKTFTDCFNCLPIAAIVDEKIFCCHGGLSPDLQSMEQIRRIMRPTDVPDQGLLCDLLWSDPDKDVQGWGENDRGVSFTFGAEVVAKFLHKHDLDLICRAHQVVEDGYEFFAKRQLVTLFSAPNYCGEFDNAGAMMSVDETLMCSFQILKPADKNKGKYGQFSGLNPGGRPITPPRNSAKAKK

Effect of a mutation on the interaction, increasing interaction strength:
Leucine-rich repeat serine/threonine-protein kinase 2 (Homo sapiens), Q5S007 N1437H
Leucine-rich repeat serine/threonine-protein kinase 2 (Homo sapiens), Q5S007 R1441G
Leucine-rich repeat serine/threonine-protein kinase 2 (Homo sapiens), Q5S007 S910A;S935A;S955A;S973A
Leucine-rich repeat serine/threonine-protein kinase 2 (Homo sapiens), Q5S007 Y1699C

Source: IntAct's records for PubMed 23937259
